To fix the notation:
B1: Myocardin-related transcription factor A, residues 341 to 383; numbered along this chain, Q969V6 (parent)
chain: GALPANLDDMKVAELKQELKLRSLPVSGTKTELIERLRAYQDQ

± gives the uncertainty stated by the source.

This series covers variants of B1. Put plainly: abundance fitness (aPCA) (normalised: wild type 0, dead -1); higher = more abundant; growth selection in yeast, the domain comes from the species named. As to conditions: Homo sapiens.
As for P4D, the abundance fitness was 0.213 ± 0.066. Turning to P4V, the abundance fitness was 0.29 ± 0.098. For P4R, the abundance fitness was determined as 0.219 ± 0.061. As for P4W, the figure is 0.057 ± 0.081; as for E35K, 0.035 ± 0.1. The figure for E35W is -0.19 ± 0.11. As for E35T, the figure is -0.173 ± 0.14; as for E35L, 0.026 ± 0.16; as for E35I, -0.174 ± 0.16.

For E35R, the abundance fitness is -0.047 ± 0.058. Regarding E35F, the abundance fitness was -0.242 ± 0.083. The figure for R38Y is -0.053 ± 0.15; for R38W it is -0.236 ± 0.2; for R38D it is -0.588 ± 0.27.

On to R38A, for which the abundance fitness was found to be 0.2 ± 0.18. The figure for R38H is -0.201 ± 0.17; for R38K it is -0.138 ± 0.096. As for L3F, the figure is 0.243 ± 0.084. Regarding L3E, the abundance fitness is -0.019 ± 0.069.

As to L3D, the abundance fitness came out at 0.512 ± 0.15. The figure for L3S is -0.031 ± 0.12; for L3G it is 0.028 ± 0.069; for K16L it is -0.408 ± 0.14.

With K16H, the abundance fitness was found to be 0.123 ± 0.16. The figure for K16R is -0.159 ± 0.067. In the case of K16E, the abundance fitness is -0.052 ± 0.068. The figure for V12Y is -0.585 ± 0.3; for V12L it is 0.164 ± 0.11; for T31K it is -0.141 ± 0.088. Turning to T31D, the abundance fitness turned out to be 0.005 ± 0.099.

Take T31Y: the abundance fitness is -0.193 ± 0.13.

Take Q41L: the abundance fitness turned out to be 0.069 ± 0.066. For the variant Q41P, the abundance fitness came to 0.066 ± 0.072. For Q41R, the abundance fitness was 0.089 ± 0.06. The figure for Q41K is 0.202 ± 0.096; for Q41S it is 0.081 ± 0.061. As to K11F, the abundance fitness was -0.502 ± 0.072. In the case of K11Y, the abundance fitness is -0.799 ± 0.14.

Turning to K11V, the abundance fitness was -0.055 ± 0.068.

Turning to K11Q, the abundance fitness is -0.161 ± 0.13. As for K11D, the abundance fitness is -0.045 ± 0.086. With K11G, the abundance fitness was -0.054 ± 0.059. The figure for K11A is 0.132 ± 0.1; for L15M it is -0.481 ± 0.27; for L15D it is -0.369 ± 0.18. As for L15N, the figure is -0.628 ± 0.22; as for L15I, 0.119 ± 0.22; as for L33N, 0.592 ± 0.39. The figure for L33K is -0.315 ± 0.095. In the case of L33G, the abundance fitness was -0.224 ± 0.082.

Consider K20A, for which the abundance fitness was -0.003 ± 0.071. As to K20F, the abundance fitness is -0.153 ± 0.097. Take K20Y: the abundance fitness stood at 0.657 ± 0.28. As for K20P, the figure is -0.453 ± 0.091; as for T29R, -0.196 ± 0.069; as for T29V, -0.26 ± 0.07.

For the variant T29C, the abundance fitness was -0.198 ± 0.072.

Take T29L: the abundance fitness was -0.376 ± 0.11. Take L37T: the abundance fitness is -0.416 ± 0.12. As for L37G, the figure is -0.303 ± 0.067; as for A5S, -0.107 ± 0.073. As for A5N, the figure is 0.215 ± 0.088; as for A5P, -0.845 ± 0.077; as for Q17P, -0.794 ± 0.14. Take Q17G: the abundance fitness is -0.153 ± 0.064. As for Q17L, the figure is -0.306 ± 0.16; as for N6Q, -0.212 ± 0.092; as for N6D, -0.189 ± 0.1. Turning to N6E, the abundance fitness was -0.007 ± 0.071. The figure for N6F is -0.431 ± 0.1; for N6W it is -0.76 ± 0.13; for N6H it is -0.661 ± 0.24. For the variant P25Y, the abundance fitness was -0.293 ± 0.18. For the variant P25W, the abundance fitness was -0.808 ± 0.072. The figure for P25S is -0.165 ± 0.077. The figure for P25E is -0.055 ± 0.076. With P25H, the abundance fitness is -0.875 ± 0.21.

With G1V, the abundance fitness was -0.384 ± 0.17. The figure for G1A is -0.918 ± 0.12; for G28Y it is -0.626 ± 0.29.

On to G28E, for which the abundance fitness was -0.628 ± 0.088. As for G28S, the figure is -0.85 ± 0.1. As for G28L, the figure is -1.06 ± 0.092. The figure for G28P is -1.13 ± 0.27. On to D9E, for which the abundance fitness was found to be 0.273 ± 0.077. For D9R, the abundance fitness was found to be 0.135 ± 0.054. Take L21C: the abundance fitness is -0.229 ± 0.14. As for L21S, the figure is -0.089 ± 0.06. As to L21D, the abundance fitness is 0.041 ± 0.081. As for L21E, the figure is 0.098 ± 0.071; as for L21G, -0.067 ± 0.065. The figure for L21P is -0.593 ± 0.13; for L21T it is 0.094 ± 0.085. The figure for E32N is -0.357 ± 0.43; for E32K it is -0.198 ± 0.097.

Turning to E32H, the abundance fitness was -0.375 ± 0.14. Consider E18Q, for which the abundance fitness was -0.292 ± 0.11. Turning to E18L, the abundance fitness is -0.35 ± 0.084. As for E18S, the figure is -0.28 ± 0.18; as for E18T, -0.5 ± 0.098; as for E18V, -0.15 ± 0.12. As for E18W, the figure is -0.606 ± 0.09.

Regarding E18I, the abundance fitness is -0.906 ± 0.24. M10D: the abundance fitness is -0.894 ± 0.15. The figure for M10Y is -0.068 ± 0.45. The figure for M10E is -0.979 ± 0.14; for M10R it is -0.537 ± 0.058; for M10N it is -0.425 ± 0.14. As for M10C, the figure is -0.441 ± 0.13. As for R36T, the abundance fitness was -0.113 ± 0.082.

R36W: the abundance fitness was -0.73 ± 0.08. On to R36N, for which the abundance fitness is -0.356 ± 0.12.

R36I: the abundance fitness was -0.728 ± 0.27. As for D42I, the figure is -0.538 ± 0.12. For the variant D42P, the abundance fitness is 0.059 ± 0.13.

As for D42S, the abundance fitness was -0.017 ± 0.11. As for A39Y, the figure is 0.129 ± 0.075; as for A39I, -0.034 ± 0.11. With A39N, the abundance fitness stood at 0.259 ± 0.088.

On to D8N, for which the abundance fitness was -0.009 ± 0.38. D8E: the abundance fitness worked out at 0.261 ± 0.077.

As for D8A, the abundance fitness was 0.19 ± 0.065. As to D8R, the abundance fitness was 0.046 ± 0.06. For D8G, the abundance fitness worked out at 0.183 ± 0.063. On to E14Q, for which the abundance fitness is -0.063 ± 0.095. The figure for E14C is -0.311 ± 0.14; for E14D it is -0.266 ± 0.15. As for S27W, the figure is -0.115 ± 0.091. Take S27K: the abundance fitness was -0.196 ± 0.15. As for S27G, the figure is -0.012 ± 0.075; as for S27C, -0.201 ± 0.1; as for S27V, -0.251 ± 0.11. As for A2Q, the figure is 0.34 ± 0.32. In the case of L19R, the abundance fitness is -0.812 ± 0.088. For L19V, the abundance fitness was -0.286 ± 0.073.

Take V26L: the abundance fitness amounted to 0.229 ± 0.071. V26Q: the abundance fitness amounted to 0.155 ± 0.096. The figure for V26E is 0.168 ± 0.082.

As to V26R, the abundance fitness is -0.129 ± 0.067. For the variant V26S, the abundance fitness is -0.035 ± 0.071. Regarding V26N, the abundance fitness was -0.466 ± 0.17. The figure for V26Y is -0.031 ± 0.23.

Turning to R22M, the abundance fitness is -0.229 ± 0.18. As for R22F, the abundance fitness was -0.816 ± 0.41. In the case of R22S, the abundance fitness was -0.561 ± 0.16. R22W: the abundance fitness was -0.572 ± 0.16. As for R22L, the figure is -0.223 ± 0.1; as for R22D, -0.327 ± 0.22; as for R22P, -0.561 ± 0.25. The figure for S23Y is 0.038 ± 0.2. On to S23N, for which the abundance fitness is 0.008 ± 0.071.

For S23G, the abundance fitness came out at 0.291 ± 0.063.

Regarding K30F, the abundance fitness was -0.463 ± 0.14.

On to Y40C, for which the abundance fitness worked out at 0.127 ± 0.082. The figure for Y40R is 0.042 ± 0.061; for Y40P it is 0.192 ± 0.1; for L24I it is -0.425 ± 0.11. As to L24H, the abundance fitness was -0.979 ± 0.18. The figure for L7H is -0.87 ± 0.17; for L7S it is -0.47 ± 0.091. With L7R, the abundance fitness was -0.614 ± 0.077. As to I34K, the abundance fitness was -0.031 ± 0.071. As for I34E, the figure is -0.151 ± 0.18. The figure for I34C is -0.139 ± 0.079; for I34D it is -0.546 ± 0.12. As to I34H, the abundance fitness is -0.186 ± 0.12. As for I34V, the figure is -0.21 ± 0.079.

For the origin of these results see the Human Domainome abundance scans (Beltran et al. 2025).
